The record followed here is paper PMC6851316, “The C-terminal dimerization domain of the respiratory mucin MUC5B functions in mucin stability and intracellular packaging before secretion” (The Journal of Biological Chemistry, 2019).

Test [1] deals with MUC5B C-terminal construct consisting of D4-B-C-CK (CT5B) (human) (UniProt Q9HC84). Briefly: AUC; sedimentation velocity; CT5B with 5 mM CaCl2 overnight at 4 °C, 150 mM NaCl, 25 mM HEPES pH 7.4 or 25 mM MES pH 6 or pH 5; tests the step dimer to higher multimers.
The target is the same in test [2]. The experiment in a line: SEC-MALS; recombinant CT5B on Superose 6 10/300 GL, 0.2 M NaCl, pH 7.4; step: monomer to disulfide-linked dimer.
Test [3] has the same target. The experiment in a line: SEC-MALS; CT5B incubated overnight at 4 °C in 5 mM CaCl2 or 5 mM EGTA, 150 mM NaCl, 25 mM HEPES pH 7.4 or 25 mM MES pH 6 or 5; Superose 6 10/300 GL at room temperature; tests the step dimer to higher multimers.
Test [4] has as its target T1, MUC5B C-terminal construct consisting of D4-B-C-CK (CT5B) (human, UniProt Q9HC84 4955-5762).
T1 construct: MUC5B, human, UniProtKB Q9HC84, D4-B-C-CK domains, residues 4955-5762; Mainly a disulfide-linked dimer with a small proportion of monomer; The dimer was used for cryo-EM, SPR (amine-coupled to a CM5 chip) and the homotypic tests; also called C-terminal dimerization domain of MUC5B; dimeric CT5B
T1 sequence (looked up): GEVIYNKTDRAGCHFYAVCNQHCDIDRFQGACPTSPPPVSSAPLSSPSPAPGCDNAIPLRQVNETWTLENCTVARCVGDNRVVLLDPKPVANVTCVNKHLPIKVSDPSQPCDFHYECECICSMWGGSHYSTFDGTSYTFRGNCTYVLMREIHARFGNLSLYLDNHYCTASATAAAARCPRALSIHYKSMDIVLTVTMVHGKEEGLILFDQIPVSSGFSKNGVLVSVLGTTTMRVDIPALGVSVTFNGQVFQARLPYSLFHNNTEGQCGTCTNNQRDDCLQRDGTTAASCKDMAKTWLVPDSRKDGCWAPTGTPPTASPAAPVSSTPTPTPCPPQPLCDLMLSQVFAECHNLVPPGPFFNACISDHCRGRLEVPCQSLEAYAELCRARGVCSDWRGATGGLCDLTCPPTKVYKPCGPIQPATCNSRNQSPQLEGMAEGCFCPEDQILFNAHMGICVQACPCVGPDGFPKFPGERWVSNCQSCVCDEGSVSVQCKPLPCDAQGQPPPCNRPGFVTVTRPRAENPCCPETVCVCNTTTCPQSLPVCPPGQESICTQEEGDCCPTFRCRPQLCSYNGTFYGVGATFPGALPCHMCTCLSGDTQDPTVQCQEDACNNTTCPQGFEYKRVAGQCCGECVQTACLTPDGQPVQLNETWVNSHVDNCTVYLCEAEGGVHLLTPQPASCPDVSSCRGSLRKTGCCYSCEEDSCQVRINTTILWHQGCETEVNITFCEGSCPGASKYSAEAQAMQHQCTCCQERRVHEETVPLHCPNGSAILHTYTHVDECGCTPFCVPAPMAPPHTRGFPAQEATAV
The experiment in a line: MST; pH 6; 2.5 nM RED-NHS labelled NT5B, CT5B serially diluted 1:1 (starting concentration 6 μM); 25 mM HEPES, 150 mM NaCl, 0.05% Tween 20, with 5 mM CaCl2 or 5 mM EGTA; room temperature; KD model. To be noted: both partners purified.

The target of test [5] is T1, MUC5B C-terminal construct consisting …. The experiment in a line: SPR; single cycle kinetics, pH 7.4; CT5B immobilised on CM5 chip, NT5B 0, 5, 10, 15, 20 and 40 nM, HBS with 5 mM CaCl2 and 0.05% Tween 20; 1:1 Langmuir model. Particulars: both partners purified.
Test [6] has the same target. The experiment in a line: MST; pH 7.4; 2.5 nM RED-NHS labelled NT5B, CT5B serially diluted 1:1 (starting concentration 6 μM); 25 mM HEPES, 150 mM NaCl, 0.05% Tween 20, with 5 mM CaCl2 or 5 mM EGTA; room temperature; KD model. To be noted: both partners purified.
Test [7] has the same target. Briefly: SPR; single cycle kinetics, pH 6; CT5B immobilised on CM5 chip, NT5B 0, 5, 10, 15, 20 and 40 nM, HBS with 5 mM CaCl2 and 0.05% Tween 20; 1:1 Langmuir model. Particulars: both partners purified.

In the case of “MUC5B C-terminal construct consisting of D4-B-C-CK (CT5B) (from UniProt Q9HC84 4955-5762) (domain or fragment)”, the stoichiometry N in test [1], in test [2] and in test [3] was 2 in each case.

B1: MUC5B N-terminal construct consisting of D1-D2-D′-D3 (NT5B) (domain or fragment)
chain: QGPVEPSWENAGHTMDGGAPTSSPTRRVSFVPPVTVFPSLSPLNPAHNGRVCSTWGDFHYKTFDGDVFRFPGLCNYVFSEHCRAAYEDFNVQLRRGLVGSRPVVTRVVIKAQGLVLEASNGSVLINGQREELPYSRTGLLVEQSGDYIKVSIRLVLTFLWNGEDSALLELDPKYANQTCGLCGDFNGLPAFNEFYAHNARLTPLQFGNLQKLDGPTEQCPDPLPLPAGNCTDEEGICHRTLLGPAFAECHALVDSTAYLAACAQDLCRCPTCPCATFVEYSRQCAHAGGQPRNWRCPELCPRTCPLNMQHQECGSPCTDTCSNPQRAQLCEDHCVDGCFCPPGTVLDDITHSGCLPLGQCPCTHGGRTYSPGTSFNTTCSSCTCSGGLWQCQDLPCPGTCSVQGGAHISTYDEKLYDLHGDCSYVLSKKCADSSFTVLAELRKCGLTDNENCLKAVTLSLDGGDTAIRVQADGGVFLNSIYTQLPLSAANITLFTPSSFFIVVQTGLGLQLLVQLVPLMQVFVRLDPAHQGQMCGLCGNFNQNQADDFTALSGVVEATGAAFANTWKAQAACANARNSFEDPCSLSVENENYARHWCSRLTDPNSAFSRCHSIINPKPFHSNCMFDTCNCERSEDCLCAALSSYVHACAAKGVQLSDWRDGVCTKYMQNCPKSQRYAYVVDACQPTCRGLSEADVTCSVSFVPVDGCTCPAGTFLNDAGACVPAQECPCYAHGTVLAPGEVVHDEGAVCSCTGGKLSCLGASLQKSTGCAAPMVYLDCSNSSAGTPGAECLRSCHTLDVGCFSTHCVSGCVCPPGLVSDGSGGCIAEEDCPCVHNEATYKPGETIRVDCNTCTCRNRRWECSHRLCLGTCVAYGDGHFITFDGDRYSFEGSCEYILAQDYCGDNTTHGTFRIVTENIPCGTTGTTCSKAIKLFVESYELILQEGTFKAVARGPGGDPPYKIRYMGIFLVIETHGMAVSWDRKTSVFIRLHQDYKGRVCGLCGNFDDNAINDFATRSRSVVGDALEFGNSWKLSPSCPDALAPKDPCTANPFRKSWAQKQCSILHGPTFAACRSQVDSTKYYEACVNDACACDSGGDCECFCTAVAAYAQACHDAGLCVSWRTPDTCPLFCDFYNPHGGCEWHYQPCGAPCLKTCRNPSGHCLVDLPGLEGCYPKCPPSQPFFNEDQMKCVAQCGCYDKDGNYYDVGARVPTAENCQSCNCTPSGIQCA
modifications: RED-NHS (amine reactive) fluorescent dye, in the MST experiments only
For B1, the Kd in test [4] is 3 ± 1.4 nM; in test [5], roughly 3 nM; in test [6], 7.4 ± 1.5 nM; in test [7], roughly 1 nM. In test [5], the “binding response, fold lower than at pH 6” value turned out to be 5 fold.
